Paper PMC9499506, “TNF-α and IL-1β Modulate Blood-Brain Barrier Permeability and Decrease Amyloid-β Peptide Efflux in a Human Blood-Brain Barrier Model” (International Journal of Molecular Sciences, 2022)
Values belong to the molecule of their own block, whether it stands above or below them.

Columns and labels:
BLECs [1] = experiment: Aβ1–40Cy5 peptide / FITC-inulin transport across untreated BLECs (Papp, transcytosis quotient); type: in vitro ADME, human; conditions: 30 min, 37 °C, mean ± SEM; for apparent permeability coefficient (Papp), efflux transport, control: untreated human BLECs on Transwell insert, basolateral-to-apical, 10 nM Aβ1–40Cy5 with 1 µM FITC-inulin in RH-HSA 0.1% pH 7.4, slight agitation, fluorescence, at least three independent experiments in triplicate
Description: As TNF-α and IL-1β modulated the protein expression levels of LRP1, BCRP and PICALM (Figure 4), we investigated the effect of these cytokines on the transport of Aβ peptide across the BBB. After 24 h of treatment with proinflammatory cytokines, the apical-to-basolateral (influx) and basolateral-to-apical (efflux) Aβ1–40Cy5 peptide transports across the BLECs were assessed in the presence of FITC-inulin. The Aβ1–40 peptide was used in all experiments, as it is the most abundant amyloid peptide found on cerebral blood vessels. FITC-inulin was used to determine the nonspecific transcytosis quotient (Figure 5A). Indeed, unlike Aβ peptide, FITC-inulin is not actively cleared at the BBB and acts as a reference marker of paracellular permeability, thus as previously reported.
(§1) As described previously, the human in vitro blood-brain barrier (BBB) model based on the acquisition of the human brain-like endothelial cell (BLEC) phenotype was used for this study. This BBB model corresponds to a coculture of primary human endothelial cells (ECs) derived from CD34^+ cord blood hematopoietic stem cells and bovine brain pericytes, isolated as described by Vandenhaute and colleagues. Informed consent was obtained from all infants’ parents for the umbilical cord blood collection and use. Procedures for isolation of cells from umbilical cord were approved by the French Ministry of Higher Education and Research (CODECOH DC2011-1321, approved 31 January 2013) and by the local investigational review board (Béthune Maternity Hospital, Beuvry, France). Briefly, 8 × 10^4 ECs at passage 6 were seeded onto Matrigel-coated (BD Biosciences, San Jose, CA, USA) insert (pore size 0.4 μm, Costar Transwell inserts, Corning Inc., Corning, New York, NY, USA. Endothelial cells were cocultured with bovine brain pericytes at passage 10 in a 12-well plate gelatin-coated with ECM-5. Every two days, ECM-5 was changed until experiment. However, a minimum of 5 days of culture were required for the ECs to develop the BLEC phenotype and a maximum of 21 days of BLEC phenotype stability has been determined. Once BLEC phenotype was acquired, these cells delimited two compartments, one mimicking the blood side (corresponding to the apical compartment) and the other the brain side (corresponding to the basolateral side). […]
After proinflammatory cytokine treatments, the influx (apical-to-basolateral) and the efflux (basolateral-to-apical) transport of Aβ1–40 peptides across BLECs were investigated as previously described. […] The BBB integrity was determined by measuring the endothelial permeability of a radioactive integrity marker, ^14C-sucrose, using the same method of calculation as described in Section 4.4. […]

BLEC monolayer = experiment: Endothelial permeability coefficient of lucifer yellow across untreated BLEC monolayer; type: in vitro ADME, human; conditions: mean ± SEM
Source text: as §1, with “Procedures for isolation of cells from umbilical cord were approved by the French Ministry of Higher Education and Research (CODECOH DC2011-1321, approved 31 January 2013) and by the local investigational review board (Béthune Maternity Hospital, Beuvry, France).” left out
The BLEC monolayer integrity was evaluated after each treatment using the method described by Dehouck and colleagues. […]

BLECs [2] = conditions: MTT assay; 10% (v/v) DMSO, 24 h; positive control of cell toxicity; mean of at least three independent experiments in triplicate
Description: An MTT assay was performed as a preliminary test to determine their effect on BLEC viability and to validate the chosen concentrations. Dimethyl sulfoxide (DMSO) at 10% (v/v) was used as a positive control of cell toxicity.
After 6 days of coculture, TNF-α or IL-1β were added to the basolateral compartment (brain side) at 10 ng·mL^−1 for 24 h, at 37 °C and 5% CO2, to mimic CNS inflammation condition. Each condition was studied in triplicate.
The standard MTT [3-(4,5-dimethylthiazol-2-yl)-2,5-diphenyltetrazolium bromide] assay (AR1156, Boster Biological Technology, Pleasanton, CA, USA) was performed to determine BLEC viability. Briefly, after coculture treatments, culture medium was removed and replaced with worm Ringer-Hepes (RH; 150 mM NaCl, 5.2 mM KCl, 2.2 mM CaCl2, 0.2 mM MgCl2–6H2O, 6 mM NaHCO3, 5 mM HEPES, 2.8 mM glucose; pH: 7.4) in basolateral compartment and with MTT solution (0.5 mg·mL^−1) in RH at in the opposite compartment for 3 h at 37 °C and 5% CO2. […] Aliquot was sampled in 96-well plate and the optical density (OD) was measured with a microplate reader (Synergy H1, BioTek. Colmar, France) at the wavelength of 570 and 630 nm. The percentage of relative cell viability compared to the control condition was subsequently determined using the following formula: % relative cell viability = ((OD570 − OD630) condition)/((OD570 – OD630)control) × 100.

Molecule: FITC-inulin
apparent permeability coefficient (Papp), efflux transport, control (BLECs [1]): 1.41 ± 0.03 × 10^−6 cm·min^−1

transcellular PeLY, control BLECs (BLEC monolayer; PeLY at 37 °C minus PeLY at 4 °C): 0.36 ± 0.02 × 10^−3 cm·min^−1 | paracellular PeLY, control BLECs (BLEC monolayer; as total PeLY but at 4 °C (transcellular pathway inhibited), 50 µM LY in RH buffer, fluorescence): 0.18 ± 0.01 × 10^−3 cm·min^−1
Molecule: Lucifer Yellow CH dilithium salt [LY]

Molecule: C[S+](C)[O-] [DMSO, Dimethyl sulfoxide, reference compound]
decrease of BLEC viability compared to control (BLECs [2]): 26.5%

Molecule: human amyloid-β peptide (1–40)-Cy5 [Aβ1–40Cy5]
transcytosis quotient of Aβ1–40Cy5, efflux direction, control (BLECs [1]; efflux Aβ1–40Cy5 Papp / efflux FITC-inulin Papp, untreated BLECs): 3.22 ± 0.13 | transcytosis quotient of Aβ1–40Cy5, influx direction, control (BLECs [1]; influx Aβ1–40Cy5 Papp / influx FITC-inulin Papp, untreated BLECs): 3.10 ± 0.25 | apparent permeability coefficient (Papp), efflux transport, control (BLECs [1]): 4.47 ± 0.16 × 10^−6 cm·min^−1
